Experiments:
[1] = substrate: NCCCC[C@H](N)C(=O)O; experiment: purified protein; conditions: PMF-driven: ΔΨ -84 mV, ZΔpH -84 mV, external pH 6.0, internal pH 7.3, 30 °C, labelled compound
[2] = substrate: NCCCC[C@H](N)C(=O)O; experiment: purified protein; type: biochemical, Saccharomyces cerevisiae; conditions: PMF-driven: ΔΨ -84 mV, ZΔpH -84 mV, external pH 6.0, internal pH 7.3, 30 °C, labelled compound, high-affinity component (out-to-in) of hyperbola plus linear fit
[3] = substrate: NCCCC[C@H](N)C(=O)O; experiment: cells, lysate or membranes; type: cell-based, Saccharomyces cerevisiae; conditions: whole cells 22∆6AAL, 100 mM potassium phosphate, 10 mM glucose, pH 6.0, 30 °C, labelled compound

B1: LysP (Salmonella enterica subsp. enterica serovar Typhimurium str. LT2) (protein)
chain: MGSKTKTTEAPALRRELKARHLTMIAIGGSIGTGLFVASGATISQAGPGGALFSYILIGLMVYFLMTSLGELAAYMPVSGSFATYGQNYVEEGFGFALGWNYWYNWAVTIAVDLVAAQLVMGWWFPDTPGWIWSALFLCVIFLLNYISVRGFGEAEYWFSLIKVATVIIFIIVGVAMIIGIFKGVEPVGWSNWTTGDAPFAGGFAAMIGVAMIVGFSFQGTELIGIAAGESENPEKNIPRAVRQVFWRILLFYVFAILIISLIIPYTDPNLLRNDVKDISVSPFTLVFQHAGLLSAAAIMNAVILTAVLSAGNSGMYASTRMLYTLACDGKAPRIFAKLSRGGVPRNALYATTVIAGLCFLTSMFGNQTVYLWLLNTSGMTGFIAWLGIAISHYRFRRGYVLQGYDVNDLPYRSGFFPLGPIFAFVLCLIITLGQNYEAFLKDTIDWGGVAATYIGIPLFLLIWFGYKLIKGTHFVRYSEMHFPERVKK
- Km [1]: 1.5 ± 0.2 µM

B2: Lyp1-GFP (Lyp1-TEV-GFP-His10) (Saccharomyces cerevisiae S288C) (protein)
chain: MGRFSNIITSNKWDEKQNNIGEQSMQELPEDQIEHEMEAIDPSNKTTPYSIDEKQYNTKKKHGSLQGGAIADVNSITNSLTRLQVVSHETDINEDEEEAHYEDKHVKRALKQRHIGMIALGGTIGTGLFVGISTPLSNAGPVGSLIAYIFMGTIVYFVTQSLGEMATFIPVTSSITVFSKRFLSPAFGVSNGYMYWFNWAITYAVEVSVIGQVIEYWTDKVPLAAWIAIFWVIITLMNFFPVKVYGEFEFWVASVKVLAIMGYLIYALIIVCGGSHQGPIGFRYWRNPGAWGPGIISSDKSEGRFLGWVSSLINAAFTYQGTELVGITAGEAANPRKTVPRAINKVVFRIVLFYIMSLFFIGLLVPYNDSRLSASSAVIASSPFVISIQNAGTYALPDIFNAVVLITVVSAANSNVYVGSRVLYSLARTGNAPKQFGYVTRQGVPYLGVVCTAALGLLAFLVVNNNANTAFNWLINISTLAGLCAWLFISLAHIRFMQALKHRGISRDDLPFKAKLMPYGAYYAAFFVTVIIFIQGFQAFCPFKVSEFFTSYISLILLAVVFIGCQIYYKCRFIWKLEDIDIDSDRREIEAIIWEDDEPKNLWEKFWAAVA
notes: full length, C-terminal TEV-GFP-His10 kept; expressed in Pichia pastoris SMD1163; purified and reconstituted in yeast/E. coli lipid vesicles
- Km [2]: 20 ± 14 µM

B3: Lyp1-YPet (Saccharomyces cerevisiae S288C) (protein)
chain: B2 chain
notes: full length, C-terminal TEV-YPet-His8 kept; expressed from plasmid under native LYP1 promoter in S. cerevisiae 22∆6AAL
- Km [3]: 10 ± 0.8 µM
